Reference: patent US20130336893A1 (Sanofi, published 2013)
*1 amine or outer side, *2 acyl side, *3 side chain or, on linkers, in order; H or OH if unused. Where no end group is shown, it is not given here. Side-chain parts run from the residue outwards. [ ]: non-standard residue; d: D form. The star is where a group is joined. γGlu = O=C(O)[C@H](CCC(=O)[*:2])N[*:1]; Palmitoyl = CCCCCCCCCCCCCCCC(=O)*

B1: SEQ ID NO: (75) (peptide)
peptide: H[dS]QGTFTSDLSKQMESRRAQDFIEWLKRGGPSSGAPPPSK([γGlu-Palmitoyl])-NH2
modifications: N-terminus assumed
SMILES: CCCCCCCCCCCCCCCC(=O)N[C@@H](CCC(=O)NCCCC[C@H](NC(=O)[C@H](CO)NC(=O)[C@@H]1CCCN1C(=O)[C@@H]1CCCN1C(=O)[C@@H]1CCCN1C(=O)[C@H](C)NC(=O)CNC(=O)[C@H](CO)NC(=O)[C@H](CO)NC(=O)[C@@H]1CCCN1C(=O)CNC(=O)CNC(=O)[C@H](CCCNC(=N)N)NC(=O)[C@H](CCCCN)NC(=O)[C@H](CC(C)C)NC(=O)[C@H](Cc1c[nH]c2ccccc12)NC(=O)[C@H](CCC(=O)O)NC(=O)[C@@H](NC(=O)[C@H](Cc1ccccc1)NC(=O)[C@H](CC(=O)O)NC(=O)[C@H](CCC(N)=O)NC(=O)[C@H](C)NC(=O)[C@H](CCCNC(=N)N)NC(=O)[C@H](CCCNC(=N)N)NC(=O)[C@H](CO)NC(=O)[C@H](CCC(=O)O)NC(=O)[C@H](CCSC)NC(=O)[C@H](CCC(N)=O)NC(=O)[C@H](CCCCN)NC(=O)[C@H](CO)NC(=O)[C@H](CC(C)C)NC(=O)[C@H](CC(=O)O)NC(=O)[C@H](CO)NC(=O)[C@@H](NC(=O)[C@H](Cc1ccccc1)NC(=O)[C@@H](NC(=O)CNC(=O)[C@H](CCC(N)=O)NC(=O)[C@@H](CO)NC(=O)[C@@H](N)Cc1c[nH]cn1)[C@@H](C)O)[C@@H](C)O)[C@@H](C)CC)C(N)=O)C(=O)O
B2: SEQ ID NO: (5) (peptide)
peptide: HSQGTFTSDLSKQMDERRAQDFIEWLKNGGPSSGAPPPS-NH2
B3: SEQ ID NO: (74) (peptide)
peptide: H[dS]QGTFTSDLSKQMESRRAQDFIEWLKNTGPSSGAPPPSK([γGlu-Palmitoyl])-NH2
modifications: N-terminus assumed
SMILES: CCCCCCCCCCCCCCCC(=O)N[C@@H](CCC(=O)NCCCC[C@H](NC(=O)[C@H](CO)NC(=O)[C@@H]1CCCN1C(=O)[C@@H]1CCCN1C(=O)[C@@H]1CCCN1C(=O)[C@H](C)NC(=O)CNC(=O)[C@H](CO)NC(=O)[C@H](CO)NC(=O)[C@@H]1CCCN1C(=O)CNC(=O)[C@@H](NC(=O)[C@H](CC(N)=O)NC(=O)[C@H](CCCCN)NC(=O)[C@H](CC(C)C)NC(=O)[C@H](Cc1c[nH]c2ccccc12)NC(=O)[C@H](CCC(=O)O)NC(=O)[C@@H](NC(=O)[C@H](Cc1ccccc1)NC(=O)[C@H](CC(=O)O)NC(=O)[C@H](CCC(N)=O)NC(=O)[C@H](C)NC(=O)[C@H](CCCNC(=N)N)NC(=O)[C@H](CCCNC(=N)N)NC(=O)[C@H](CO)NC(=O)[C@H](CCC(=O)O)NC(=O)[C@H](CCSC)NC(=O)[C@H](CCC(N)=O)NC(=O)[C@H](CCCCN)NC(=O)[C@H](CO)NC(=O)[C@H](CC(C)C)NC(=O)[C@H](CC(=O)O)NC(=O)[C@H](CO)NC(=O)[C@@H](NC(=O)[C@H](Cc1ccccc1)NC(=O)[C@@H](NC(=O)CNC(=O)[C@H](CCC(N)=O)NC(=O)[C@@H](CO)NC(=O)[C@@H](N)Cc1c[nH]cn1)[C@@H](C)O)[C@@H](C)O)[C@@H](C)CC)[C@@H](C)O)C(N)=O)C(=O)O
B4: SEQ ID NO: (76) (peptide)
peptide: H[dS]QGTFTSDLSKQMESRRAQDFIEWLKR[dA]GPSSGAPPPSK([γGlu-Palmitoyl])-NH2
modifications: N-terminus assumed
SMILES: CCCCCCCCCCCCCCCC(=O)N[C@@H](CCC(=O)NCCCC[C@H](NC(=O)[C@H](CO)NC(=O)[C@@H]1CCCN1C(=O)[C@@H]1CCCN1C(=O)[C@@H]1CCCN1C(=O)[C@H](C)NC(=O)CNC(=O)[C@H](CO)NC(=O)[C@H](CO)NC(=O)[C@@H]1CCCN1C(=O)CNC(=O)[C@@H](C)NC(=O)[C@H](CCCNC(=N)N)NC(=O)[C@H](CCCCN)NC(=O)[C@H](CC(C)C)NC(=O)[C@H](Cc1c[nH]c2ccccc12)NC(=O)[C@H](CCC(=O)O)NC(=O)[C@@H](NC(=O)[C@H](Cc1ccccc1)NC(=O)[C@H](CC(=O)O)NC(=O)[C@H](CCC(N)=O)NC(=O)[C@H](C)NC(=O)[C@H](CCCNC(=N)N)NC(=O)[C@H](CCCNC(=N)N)NC(=O)[C@H](CO)NC(=O)[C@H](CCC(=O)O)NC(=O)[C@H](CCSC)NC(=O)[C@H](CCC(N)=O)NC(=O)[C@H](CCCCN)NC(=O)[C@H](CO)NC(=O)[C@H](CC(C)C)NC(=O)[C@H](CC(=O)O)NC(=O)[C@H](CO)NC(=O)[C@@H](NC(=O)[C@H](Cc1ccccc1)NC(=O)[C@@H](NC(=O)CNC(=O)[C@H](CCC(N)=O)NC(=O)[C@@H](CO)NC(=O)[C@@H](N)Cc1c[nH]cn1)[C@@H](C)O)[C@@H](C)O)[C@@H](C)CC)C(N)=O)C(=O)O
B5: SEQ ID NO: (77) (peptide)
peptide: H[dS]QGTFTSDLSKQMESRRAQDFIEWLKKGGPSSGAPPPSK([γGlu-Palmitoyl])-NH2
modifications: N-terminus assumed
SMILES: CCCCCCCCCCCCCCCC(=O)N[C@@H](CCC(=O)NCCCC[C@H](NC(=O)[C@H](CO)NC(=O)[C@@H]1CCCN1C(=O)[C@@H]1CCCN1C(=O)[C@@H]1CCCN1C(=O)[C@H](C)NC(=O)CNC(=O)[C@H](CO)NC(=O)[C@H](CO)NC(=O)[C@@H]1CCCN1C(=O)CNC(=O)CNC(=O)[C@H](CCCCN)NC(=O)[C@H](CCCCN)NC(=O)[C@H](CC(C)C)NC(=O)[C@H](Cc1c[nH]c2ccccc12)NC(=O)[C@H](CCC(=O)O)NC(=O)[C@@H](NC(=O)[C@H](Cc1ccccc1)NC(=O)[C@H](CC(=O)O)NC(=O)[C@H](CCC(N)=O)NC(=O)[C@H](C)NC(=O)[C@H](CCCNC(=N)N)NC(=O)[C@H](CCCNC(=N)N)NC(=O)[C@H](CO)NC(=O)[C@H](CCC(=O)O)NC(=O)[C@H](CCSC)NC(=O)[C@H](CCC(N)=O)NC(=O)[C@H](CCCCN)NC(=O)[C@H](CO)NC(=O)[C@H](CC(C)C)NC(=O)[C@H](CC(=O)O)NC(=O)[C@H](CO)NC(=O)[C@@H](NC(=O)[C@H](Cc1ccccc1)NC(=O)[C@@H](NC(=O)CNC(=O)[C@H](CCC(N)=O)NC(=O)[C@@H](CO)NC(=O)[C@@H](N)Cc1c[nH]cn1)[C@@H](C)O)[C@@H](C)O)[C@@H](C)CC)C(N)=O)C(=O)O
B6: SEQ ID NO: (78) (peptide)
peptide: H[dS]QGTFTSDLSKQMESRRAQDFIEWLKSGGPSSGAPPPSK([γGlu-Palmitoyl])-NH2
modifications: N-terminus assumed
SMILES: CCCCCCCCCCCCCCCC(=O)N[C@@H](CCC(=O)NCCCC[C@H](NC(=O)[C@H](CO)NC(=O)[C@@H]1CCCN1C(=O)[C@@H]1CCCN1C(=O)[C@@H]1CCCN1C(=O)[C@H](C)NC(=O)CNC(=O)[C@H](CO)NC(=O)[C@H](CO)NC(=O)[C@@H]1CCCN1C(=O)CNC(=O)CNC(=O)[C@H](CO)NC(=O)[C@H](CCCCN)NC(=O)[C@H](CC(C)C)NC(=O)[C@H](Cc1c[nH]c2ccccc12)NC(=O)[C@H](CCC(=O)O)NC(=O)[C@@H](NC(=O)[C@H](Cc1ccccc1)NC(=O)[C@H](CC(=O)O)NC(=O)[C@H](CCC(N)=O)NC(=O)[C@H](C)NC(=O)[C@H](CCCNC(=N)N)NC(=O)[C@H](CCCNC(=N)N)NC(=O)[C@H](CO)NC(=O)[C@H](CCC(=O)O)NC(=O)[C@H](CCSC)NC(=O)[C@H](CCC(N)=O)NC(=O)[C@H](CCCCN)NC(=O)[C@H](CO)NC(=O)[C@H](CC(C)C)NC(=O)[C@H](CC(=O)O)NC(=O)[C@H](CO)NC(=O)[C@@H](NC(=O)[C@H](Cc1ccccc1)NC(=O)[C@@H](NC(=O)CNC(=O)[C@H](CCC(N)=O)NC(=O)[C@@H](CO)NC(=O)[C@@H](N)Cc1c[nH]cn1)[C@@H](C)O)[C@@H](C)O)[C@@H](C)CC)C(N)=O)C(=O)O
B7: SEQ ID NO: (79) (peptide)
peptide: H[dS]QGTFTSDLSKQMESRAAQLFIEWLKAGGPSSGAPPPSK([γGlu-Palmitoyl])-NH2
modifications: N-terminus assumed
SMILES: CCCCCCCCCCCCCCCC(=O)N[C@@H](CCC(=O)NCCCC[C@H](NC(=O)[C@H](CO)NC(=O)[C@@H]1CCCN1C(=O)[C@@H]1CCCN1C(=O)[C@@H]1CCCN1C(=O)[C@H](C)NC(=O)CNC(=O)[C@H](CO)NC(=O)[C@H](CO)NC(=O)[C@@H]1CCCN1C(=O)CNC(=O)CNC(=O)[C@H](C)NC(=O)[C@H](CCCCN)NC(=O)[C@H](CC(C)C)NC(=O)[C@H](Cc1c[nH]c2ccccc12)NC(=O)[C@H](CCC(=O)O)NC(=O)[C@@H](NC(=O)[C@H](Cc1ccccc1)NC(=O)[C@H](CC(C)C)NC(=O)[C@H](CCC(N)=O)NC(=O)[C@H](C)NC(=O)[C@H](C)NC(=O)[C@H](CCCNC(=N)N)NC(=O)[C@H](CO)NC(=O)[C@H](CCC(=O)O)NC(=O)[C@H](CCSC)NC(=O)[C@H](CCC(N)=O)NC(=O)[C@H](CCCCN)NC(=O)[C@H](CO)NC(=O)[C@H](CC(C)C)NC(=O)[C@H](CC(=O)O)NC(=O)[C@H](CO)NC(=O)[C@@H](NC(=O)[C@H](Cc1ccccc1)NC(=O)[C@@H](NC(=O)CNC(=O)[C@H](CCC(N)=O)NC(=O)[C@@H](CO)NC(=O)[C@@H](N)Cc1c[nH]cn1)[C@@H](C)O)[C@@H](C)O)[C@@H](C)CC)C(N)=O)C(=O)O

target: human GLP-1 receptor (human, UniProt P43220 24-463); assay: cell-based or functional assay

| Binder | EC50 hGLP-1R (cAMP formation) |
| --- | --- |
| B1 | 0.0046 nM |
| B2 | 0.0166 nM |
| B3 | 0.0396 nM |
| B4 | 0.0048 nM |
| B5 | 0.003 nM |
| B6 | 0.0042 nM |
| B7 | 0.0037 nM |

target: human glucagon receptor (human, UniProt P47871 26-477); assay: cell-based or functional assay
Sequence (P47871 26-477): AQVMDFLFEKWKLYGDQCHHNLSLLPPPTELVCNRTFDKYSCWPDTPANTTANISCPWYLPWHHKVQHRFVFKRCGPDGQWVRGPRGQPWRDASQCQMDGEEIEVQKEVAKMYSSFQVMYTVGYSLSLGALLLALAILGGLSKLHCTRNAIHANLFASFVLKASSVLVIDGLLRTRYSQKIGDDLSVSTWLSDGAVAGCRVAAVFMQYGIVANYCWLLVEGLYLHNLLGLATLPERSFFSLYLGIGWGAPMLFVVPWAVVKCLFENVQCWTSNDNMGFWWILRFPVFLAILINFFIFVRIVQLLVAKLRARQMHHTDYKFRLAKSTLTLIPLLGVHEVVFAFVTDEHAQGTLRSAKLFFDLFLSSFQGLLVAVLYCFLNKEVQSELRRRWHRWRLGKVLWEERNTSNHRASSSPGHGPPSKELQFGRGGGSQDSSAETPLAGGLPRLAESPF

| Binder | EC50 hGlucagonR (cAMP formation) |
| --- | --- |
| B1 | 0.0641 nM |
| B2 | 0.067 nM |
| B3 | 0.0355 nM |
| B4 | 0.0741 nM |
| B5 | 0.0372 nM |
| B6 | 0.0181 nM |
| B7 | 0.195 nM |
